The DeepSol protein solubility set

test: soluble on expression in E. coli; label from the status in PepcDB or PDB records

Sequence | soluble on expression in E. coli
SNAQDVPVTQVMTPRPVVFRVDATMTINEFLDKHKDTPFSRPLVYSEQKDNIIGFVHRLELFKMQQSGSGQKQLGAVMRPIQVVLNNTALPKVFDQMMTHRLQLALVVDEYGTVLGLVTLEDIFEHLVGE | soluble
MGSDKIHHHHHHMEKLYLKIGNQDEFDICEKVQGLHFLSDDSTPVTTNQFLEISGADGSQFQYATFGKYQVVANFFLEFKSWEDYKLAKHQINRIFSTKKLIRMRTNVESAIVRYVYPNFPEIKPISDGANSSTFSVNFDNPSGYRYSIDRSDELSKVQYGMYLLDNIYPEYRFTDKSFRVYNPSDIAIDPYLGKHDLKIISKFSGNSLKITNTTNGTSWSYNKSSNGSETVLLDGIVTTVNGNPATVNTDYGHIVLNTGWNDIVVSGTNSNDITFSFPFIYI | not soluble
MSVEASNQENSLSSFLLKCAFPAGTTPPLLSPPSSSGSYEEAQFSLFVNQNETEQKLFSNQSLANRDPCTIPDELHQEMKSLKKKEEAFKTSLCGFHRRGQKCAYGEKCKFAHSVHELRFPQTKRNHRNYKTVLCNNFSTTGHCKYGIRCQFIHRSMNSTSSNQSNKMENITIDLNVQSDVFRAFALDSTSLLPNWHCSALLQ | not soluble
MAKKVRSVHECSECGYSSPKWLGRCPECGSWGSMEERTVGESGGAARAAVSGAAPAGLTPTSPAVPIGKIVASQATSISTGIGELDRVLGNGIVPGSVVLMAGEPGVGKSTLLLEVASRWASMKEGDGTRTALYVTAEESAGQVRLRAERTAAVKDTLYLAAESNLDVVFGHVNQVKPSLLIVDSVQTMHAAGVEGVAGGVAQSRAVTAALTTLAKTSGIPILLVGHVTKDGNVAGPRVLEHLVDVVLNFEGDRHSSLRMLRGIKNRFGATDEVGCFEQQSDGIKEVPDPSGLFLSHRGSTPDGTAVTVAMDGVRPLLAEVQSLLVDAPSKNPRRVVTGLDANRVPMVLAVLSARAGRQTQGKDAYVATVGGMKVGEPATDLAVALATASALAKKPLPDKTVVLGEVGLAGEIRRVPNVDRRLAEAERLGYEKAVIPGGSGIKQTSLRVIEASTLAEALAAVSLLEHHHHHH | not soluble
MIRLAPLITADVDTTTLPGGKASDAAQDFLTLLSEALAGETTTDKAAPQLLVATDKPTTKGEPLVSDILADAQQADLLIPVDETLPVINDEQSTSTPLTTAQTMTLAAVADKNTTKDEKADDLNEDVTASLSALFAMLPGFDNTPKVTDAPSTVLPAEKPTLFTKLTSAQLTTAQPDDAPGTPAQPLTPLVAEAQSKAEVISTPSPVTADASPLITPHQTQPLPTVAAPVLSAPLGSHEWQQSLSQHISLFTRQGQQSAELRLHPQDLGEVQISLKVDDNQAQIQMISPHQHVRAALEAALPVLRTQLAESGIQLGQSNISGESFSGQQQAASQQQQSQRTANHEPLAGEDDDTLPVPVSLQGRVTGNSGVDIFA | not soluble
MFARAPFVRLLSTTSRNLAEAEKKVSKEALMALRKKTGYSYVNCRKALIQFGENDMDSAVKWLKEAAAKEGWAKAAKLGTRVTSNGLVSVVTDNSTAAVVELSCETDFVARSGAFKDLLSNISNSVLAKAKPQSISSGSKLQEFTYDLGDLTDSDGKNMREVLSLSIGKLGENMTVRRVKAFKAPEGTTLFGASHPKDGTDDIPMGRFISLIALNQSSPGSISSQQLAGQICQHIIGMSPESLGEAAESVKTQEGLRSQEGHDPNADPVVVTNIDESETALLRQAFMLNPSQSVHEYLKSHNANILDFVRVELGSE | not soluble
MGHHHHHHSHANCAENEEGCTPLHLACRKGDGEILVELVQYCHTQMDVTDYKGETVFHYAVQGDNSQVLQLLGRNAVAGLNQVNNQGLTPLHLACQLGKQEMVRVLLLCNARCNIMGPNGYPIHSAMKFSQKGCAEMIISMDSSQIHSKDPRYGASPLHWAKNAEMARMLLKRGCNVNSTSSAGNTALHVAVMRNRFDCAIVLLTHGANADARGEHGNTPLHLAMSKDNVEMIKALIVFGAEVDTPNDFGETPTFLASKIGRLVTRKAILTLLRTVGAEYCFPPIHGVPAEQGSAA | not soluble
MNQEYLDFELPIAELEAKIEALRAASDDKVDLTDEIKRLQKKSNELTKKTFANLDAWQVSRMARHPNRPYTLDYIEHIFTEFEELAGDRAFADDKAIVGGLARLDGRPVMVIGHQKGRSVKEKVQRNFGMPAPEGYRKALRLMEMAERFKLPIITFIDTPGAYPGIGAEERGQAEAIARNLREMAQLTVPVICTVIGEGGSGGALAIGVGDKVNMLQYSTYSVISPEGCASILWKSAEKASTAAEVMGLTASRLKELNLIDSIVQEPLGGAHRSYLEIAENLKLRLKEDLAELDELSKEELLNRRYERLMSYGYC | not soluble
MVLFSEDHIQETRRRGRIEVICGSMFSGKTEELIRRMKRAKFARQRVEIFKPAIDTRYSEEDVVSHDSHSIASTPIDSSASILLFTSEIDVVGIDEAQFFDDGLIDVCRQLANNGIRVIIAGLDMDFKGNPFGPMPQLCAIADEVSKVHAICVKCGDLASFSHRTVKNDKQVLLGETAEYEPLCRECYLRARGEDGQKI | not soluble
MGSDKIHHHHHHMKDGQMLTEWPSHLPWLNQSQNDFTFPSDTYLLLYFWSMSCPNCHQFTDKVLQDIKDMNVKVIGVHVPYIEEEKSMEVVLTYALDRGLAIPIVLDQNYEIVTTCHVQGIPSFCLLSQYGQIITKTMGDVSWDKMLKKIAGL | not soluble
MDLTHFQDGRPRMVDVTEKPETFRTATAEAFVELTEEALSALEKGGVGKGDPLVVAQLAGILAAKKTADLIPLCHPLPLTGVEVRVELLKAEKRVRIEATVKTKAETGVEMEAMTACAVAALTVYDMLKAASKGLVISQVRLLHKAGGKSGEWRREQ | soluble
MAQAFVDATWPQAAKAAQSLGVPAHFLVAQAALETGWGKSQIRNKDGTPSYNLFNIKAGSNWTGKVVEARTVEYENGQRKVRVERFRAYDSYEQAFQDYADLVGNSPRYAKVAGKTDGHAFARALQEGGYATDPSYADKLARVINGNALRQRLMASAASARGLEHHHHHH | soluble
MEEVMALSEPEQNTWINRPEYSEVSEDRIVIVSDANTDFWENTYYDFSHYTGHVYGKETESDFTFQVRVKADFSALYDQAGIFIGGTETAWIKAGIEFNDGQPSIGCVVTNNNSDWSTGLFPGNPGDFWMRVTSKSDVIRIQYSIDGKNWPLLRLCTWPGTRKRFIGVMCCSPKRKGLSAEFTEILLTTPLDSDLHDLSLEHHHHHH | soluble
MSLEVIKHDGPGRLGVIRLEPPVQTPALAGVDFTISPFNSYFNPKEYHDYDFNLAPSIPLSYYTPDEVIEKALKRIETVDYSKFNTFYFPALKRDKYYPRFVELIEENDFDAIYIGNSKVMIKDYRGFVATLRILREKFPNAVLITDLEPFFYPLAVYLGVDAFDVRSLKIYSYEGLGFTPFSPVIWDRPNDPIEFAREMIKIIKIAIQEGKLRYLVENFLPTVMNVGILRIADKEHGDYLEKYTPVHDKTVVFISEHSISRPEVFRWRKRIEERFEPPKGIDLLLIFPCSAKKPYSRSRSHMMYRKVMKEALGEKVHRVHELVVTSPYGVVPREWEWLAKYDIVVTGHWSESEVRFAGELLAQTIEKYPDIPIVAHVEGGYREAVKYAMELVNRDVIFTAVGSSTISKESLDKLKKTLKEFDLRDAEKDYRRYRFYENVRKVFDYYFGLGAGEAVLPENAQIVGSKMLRLIVNNSQTGTFQEGVISVTPFGMQRIYDKLNSYWVEVDFDIRGDVFAAGVERADEGIRPNDIVGIVRDGRVVAVGRAVLSGEEMVRAKKGIAVRVRKRVKNKEGHHHHHH | soluble
MGSDKIHHHHHHMRIVNDVKKILFLAANPQNTVRLRLDKEVEEIRTTLQLSVNRDRFVIESRGAVRPDDLQQYMYNLKPQIVHFSGHGGGEYGLAFEDENGAEQPVSTDALAKFFQLFAGEVNCVVLNACYASVQAEAIAQYIPYVVGMNQAIGDEAARQFAQGFYRAIWDNRSIEDAFASGVNAIALDGIPEDLTPVLLRQADRVTTQTIPSNSVSLESPDGQVRIDSRFYVHSSYEERCYAEVKKPGSLIRIKSPHNMGKSSLMVRVLGYAAQLGYRTVTLNLEQVNQKFFNDLDKYMQWFCASVGKPLGVRIKIEEYWDDIFGANDNSTDYFEKYLLDDTEPPLVVAIDNFDRVFKYPDIETDFCGLLRGWHERSRSNQLWGKLRFVIVYSQEPYLQKDINQSPFNVGLPIELGEFTTAQVQELIRLHGLDWSGQFVKQFMDLIGGHPYLVRSALYHIAAGDLTLEEFLRTAPTEAGIYSDYLLGHLKSLEDYPTLGAAMKTVVTSEFPVRLRSEEAFRVWLCGLRITSSPDANCIVNIFAIA | not soluble
MGSDKIHHHHHHMNAPLSHSRPMMQPSEDKSLATVFPFAGRVLDETPMLLGEGPTFDPASGTAWWFNILERELHELHLASGRKTVHALPFMGSALAKISDSKQLIASDDGLFLRDTATGVLTLHAELESDLPGNRSNDGRMHPSGALWIGTMGRKAETGAGSIYHVAKGKVTKLFADISIPNSICFSPDGTTGYFVDTKVNRLMRVPLDARTGLPTGKAEVFIDSTGIKGGMDGSVCDAEGHIWNARWGEGAVDRYDTDGNHIARYEVPGKQTTCPAFIGPDASRLLVTSAREHLDDDAITANPQHGLTFELGIEVKGRFEPLYRL | soluble
MNQLINITLNENQEPVVSGRDLHNVLNIKTQYTKWLERMSEYGFEENVDYIAISQKRLTAQGNRTEYIDHVLKLDMAKEIAMLQRNEKSKQVRKYFIQVEKDFNSPEKIMARALLMADKKITNLTMENNQLQLDLKEAQKQARYLDLIIESKGALRVTQIAADYGMSVNKFNKTLLEFGVQHKVNGQWILYKRHMGKGYTDSHTFDYQDKNGHTRANVTTTWTQKGRLFLYELLKDNNILPLIEQEDIV | not soluble
MEFKVGDTVVYPHHGAAVIEAIEHREMGGETLEYLVLQINQSDLVVRVPSKNAELVGVRDVVDDDGLQKVFGFLRETDVEEAGNWSRRFKANQERLASGDVNKVAEVVRDLWRRDQGKGLSAGEKRMLAKARQVLVGELALAENKDEKQTEEILAQVDATIERHRAENKGIEETKVEPLGDIDLDDLNFDDED | not soluble
MNIVEPLRDKDDIQAMKDYLSSWNEKYYMLFLLGINTGFRVGDILKLKVKDVQGWHIKVREQKTGKYKSIKMTRPLKNELREFVKDKELHEYLFQSRVGKNKALSYKTVYWFLKRAAEDLGIDNVGTHTMRKTFGYHYYKKYKNVADLMSLFNHSSPAVTLIYICVRQDELDTKMSNFSL | not soluble
MLQSNEYFSGKVKSIGFSSSSTGRASVGVMVEGEYTFSTAEPEEMTVISGALNVLLPDATDWQVYEAGSVFNVPGHSEFHLQVAEPTSYLCRYL | soluble
QFWDLNAKLVDIPTKMRVERWAFNFSELIRDPKGRQSFQHFLRKEFSGENLGFWEACEDLKYGDQSKVKEKAEEIYKLFLAPGARRWINIDGKTMDITVKGLKHPHRYVLDAAQTHIYMLMKKDSYARYLKSPIYKEMLAKAIEPQG | soluble
MPYLLYHHFDPTFDHQNLKPGLAVGKGKVDHYNLGYVQNVVKGQVLAEFIPIDDTDDPVIDRNHIFEEPLLPVGPNCKVDPDSPLRVVADANGYVFYNDGLITVKRMLNVRRDVDFHTGNIFFVSDIAVHGDVRAGFEVQGNNILVKGIIEGATVRARGSLAVEGGARGSGGSGLLDAGDTLRVPFAESMELRAHGNILIEKFCLHSLVYAATNLVVKNRLQGGTVHCNGLVYVETHLGNPKGTPTATRINMGYDPFTMRKLDRLEQHIRELQDSLTHIAGIAGNLGSDSAPGKRLDNARKKLNRLIRQREALWAALTEDEARAALCRVVVPGTVYPGVEISIGKAFFEVEHEMNNVSFSLADGSIVVTSPAIIKKKALEHHHHHH | not soluble
